Test [1] deals with T1, hPD-1-His (human, UniProt Q15116 25-170, limits assumed).
T1 construct: also called His-tagged soluble human PD-1; shPD-1
The experiment in a line: ELISA: shPD-1-his coated, detection goat anti-human Fc-gamma-HRP 1:10000, chemiluminescence RLU. The text has this:
(§1) FIGS. 8A-8D show the results of ELISA studies measuring the binding of serially diluted binding molecules to human CTLA-4 and human PD-1. […] Goat anti-human-Fc-HRP (1:10,000) was employed as the secondary detection molecule to detect binding. FIGS. 8C-8D show the results of a study on the effect of altering orientations and binding domains on binding. […] Goat anti-human-Fcγ-HRP was employed as the secondary detection molecule to detect binding using PICO chemiluminescent substrate.

For another test, the target named is T2, soluble hCTLA-4-Avi-His (human, UniProt P16410 36-161).
T2 construct: also called soluble human CTLA-4-Avi-His
T2 sequence: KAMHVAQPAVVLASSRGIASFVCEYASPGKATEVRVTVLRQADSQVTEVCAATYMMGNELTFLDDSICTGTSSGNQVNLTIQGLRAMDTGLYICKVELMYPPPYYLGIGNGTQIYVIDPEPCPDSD
The test can be described thus: ELISA: shCTLA-4-Avi-His coated at 1 ug/mL, detection goat anti-human Fc-gamma-HRP 1:10000, chemiluminescence RLU.
Source text: as §1

Test [2] addresses T3, PD-1 expressed on the cell surface (human, UniProt Q15116 21-288).
T3 construct: also called NSO cells expressing PD-1; NSO-PD-1 cells
The test can be described thus: cell-based competition (FACS): blocked ligand PD-L1-PE binding to NSO-PD-1 cells, MFI.

For test [3], the target named is T3, PD-1 expressed on the cell surface. The test can be described thus: cell-based competition (FACS): blocked ligand PD-L2-PE binding to NSO-PD-1 cells, MFI.
Test [4] concerns the target T4, His-tagged soluble cynomolgus monkey CTLA-4 (cynomolgus monkey).
T4 construct: extracellular domain; also called Cyno CTLA-4
The experiment in a line: BIACORE, His-tagged soluble cyno CTLA-4 captured on anti-PentaHis, binder passed over at 12.5-200 nM; affinity by 1:1 Langmuir binding model. As to the method: (§2) Briefly, His-tagged soluble CTLA-4 (an extracellular portion of human or cynomolgus monkey CTLA-4 fused to a histidine-containing peptide) was captured on immobilized anti-PentaHis and then different concentrations (12.5-200 nM) of the CTLA-4 binding molecules were passed over the immobilized CTLA-4 proteins. The kinetics of binding were determined via BIACORE® analysis (affinity by 1:1 Langmuir binding model (simultaneous ka/kd); or avidity by separate ka/kd 1:1 fit).

In test [5] the target is T1, hPD-1-His. The test can be described thus: competition ELISA: plate coated with shPD-1 and shCTLA-4 1:1 (2 ug/ml each); blocked ligand biotin-labeled PD-L1 6 ug/ml, streptavidin-HRP, RLU. The procedure:
(§3) A series of ELISA assays were conducted to evaluate the ability of bispecific molecules of the invention to block ligand binding to PD-1 and […], alone and in combination. […] Plates were coated with a 1:1 mix of His-tagged soluble human PD-1 (shPD-1) and a His-tagged irrelevant antigen (irrAg) (2 μg/ml each), or a 1:1 mix of shPD-1 and a His-tagged soluble human CTLA-4 (shCTLA-4) (2 μg/ml each).

In test [6] the target is T5, His-tagged soluble human CTLA-4 (human, UniProt P16410 36-161).
T5 construct: also called shCTLA-4
T5 sequence: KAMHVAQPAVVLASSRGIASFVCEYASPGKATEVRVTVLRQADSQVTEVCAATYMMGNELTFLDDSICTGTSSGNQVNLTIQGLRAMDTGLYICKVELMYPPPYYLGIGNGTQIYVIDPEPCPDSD
The experiment in a line: competition ELISA: plate coated with shCTLA-4 and shPD-1 1:1 (2 ug/ml each); blocked ligand biotin-labeled B7-1 0.2 ug/ml, streptavidin-HRP, RLU. As to the method: (§4) Plates were coated with a 1:1 mix of shCTLA-4 and irrAg (2 μg/ml each), a 1:1 mix of shCTLA-4 shPD-1 (2 μg/ml each), or a 1:4 mix of shCTLA-4 (0.8 μg/ml) and shPD-1 (3.2 μg/ml).

Test [7] deals with T5, His-tagged soluble human CTLA-4. The test can be described thus: competition ELISA: plate coated with shCTLA-4 0.8 ug/ml and shPD-1 3.2 ug/ml (1:4); blocked ligand biotin-labeled B7-1 0.2 ug/ml, streptavidin-HRP, RLU. The procedure:
as §4

Test [8] concerns the target T1, hPD-1-His. The experiment in a line: competition ELISA: plate coated with shPD-1 and irrelevant antigen 1:1 (2 ug/ml each); blocked ligand biotin-labeled PD-L1 6 ug/ml, streptavidin-HRP, RLU. As to the method: as §3
Test [9] concerns the target T4, His-tagged soluble cynomolgus monkey …. The test can be described thus: BIACORE, His-tagged soluble cyno CTLA-4 captured on anti-PentaHis, binder passed over at 12.5-200 nM; avidity by separate ka/kd 1:1 fit. The procedure: as §2
Test [10] has as its target T3, PD-1 expressed on the cell surface. The experiment in a line: flow cytometry on NSO cells expressing PD-1 but not CTLA-4, MFI (APC).
Test [11] addresses T6, human CTLA-4 expressed on the cell surface (human, UniProt P16410 36-223).
T6 construct: also called huCTLA-4; CHO cells expressing human CTLA-4
T6 sequence: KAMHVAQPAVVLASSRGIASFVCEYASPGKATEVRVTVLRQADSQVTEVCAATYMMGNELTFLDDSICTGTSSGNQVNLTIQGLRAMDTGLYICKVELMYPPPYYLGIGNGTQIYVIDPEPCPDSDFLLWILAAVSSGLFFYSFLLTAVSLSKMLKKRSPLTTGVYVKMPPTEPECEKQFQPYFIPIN
The test can be described thus: flow cytometry on CHO cells expressing human CTLA-4, anti-human Fc secondary antibody, GMFI.

Test [12] has as its target T7, cynomolgus monkey CTLA-4 expressed on CHO cells (cynomolgus monkey, UniProt G7PL88 36-223).
T7 construct: also called cynoCTLA-4
T7 sequence: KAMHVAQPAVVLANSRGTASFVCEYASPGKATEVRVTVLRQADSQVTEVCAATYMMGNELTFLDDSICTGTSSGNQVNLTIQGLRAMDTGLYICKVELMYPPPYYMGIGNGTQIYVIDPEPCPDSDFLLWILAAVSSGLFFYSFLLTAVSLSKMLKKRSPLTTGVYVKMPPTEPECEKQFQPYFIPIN
The experiment in a line: flow cytometry on CHO cells expressing cynomolgus monkey CTLA-4, anti-human Fc secondary antibody, GMFI.

Test [13] has as its target T6, human CTLA-4 expressed on the cell …. The test can be described thus: cell-based competition: blocked ligand His-B7-1 10 ng/ml binding to CTLA-4 Jurkat cells, detected with anti-His antibody, GMFI-APC.
For test [14] the target is unchanged. The test can be described thus: cell-based competition: blocked ligand His-B7-2 116.8 ng/ml binding to CTLA-4 Jurkat cells, detected with anti-His antibody, GMFI-APC.

B1: DART B (bispecific antibody)
chain 1: not shown
chain 2: EIVLTQSPATLSLSPGERATLSCRASESVDNYGMSFMNWFQQKPGQPPKLLIHAASNQGSGVPSRFSGSGSGTDFTLTISSLEPEDFAVYFCQQSKEVPYTFGGGTKVEIKGGGSGGGGQVQLVESGGGVVQPGRSLRLSCAASGFTFSSYTMHWVRQAPGKGLEWVTFISYDGNNKYYADSVKGRFTISRDNSKNTLYLQMNSLRAEDTAIYYCARTGWLGPFDYWGQGTLVTVSSGGCGGGKVAACKEKVAALKEKVAALKEKVAALKE
notes: Four-chain Fc diabody, PD-1 mAb 6-ISQ x CTLA-4 mAb 1, IgG4 (YTE), E/K-coils; two sites for PD-1 and two for CTLA-4
As to B1, in the test with hPD-1-His [1], the “EC50 (read off the curve)” value is roughly 0.5 nM.

B2: DART C (bispecific antibody)
chain 1: not shown
chain 2: EIVLTQSPATLSLSPGERATLSCRASESVDNYGMSFMNWFQQKPGQPPKLLIHAASNQGSGVPSRFSGSGSGTDFTLTISSLEPEDFAVYFCQQSKEVPYTFGGGTKVEIKGGGSGGGGQVQLVESGGGVVQPGRSLRLSCAASGFTFSSYTMHWVRQAPGKGLEWVTFISYDGSNKHYADSVKGRFTVSRDNSKNTLYLQMNSLRAEDTAIYYCARTGWLGPFDYWGQGTLVTVSSGGCGGGKVAACKEKVAALKEKVAALKEKVAALKE
notes: Four-chain Fc diabody, CTLA-4 mAb 3 x PD-1 mAb 6-ISQ, IgG4 Fc, E/K-coils
In the case of B2, the “EC50 (read off the curve)” value was roughly 0.5 nM with hPD-1-His [1] and roughly 0.4 nM with soluble hCTLA-4-Avi-His.

B3: TRIDENT A (bispecific antibody, human IgG4 S228P, kappa)
chain 1: EIVLTQSPATLSLSPGERATLSCRASESVDNYGMSFMNWFQQKPGQPPKLLIHAASNQGSGVPSRFSGSGSGTDFTLTISSLEPEDFAVYFCQQSKEVPYTFGGGTKVEIKGGGSGGGGQVQLVQSGAEVKKPGASVKVSCKASGYSFTSYWMNWVRQAPGQGLEWIGVIHPSDSETWLDQKFKDRVTITVDKSTSTAYMELSSLRSEDTAVYYCAREHYGTSPFAYWGQGTLVTVSSGGCGGGEVAACEKEVAALEKEVAALEKEVAALEKESKYGPPCPPCPAPEFLGGPSVFLFPPKPKDTLYITREPEVTCVVVDVSQEDPEVQFNWYVDGVEVHNAKTKPREEQFNSTYRVVSVLTVLHQDWLNGKEYKCKVSNKGLPSSIEKTISKAKGQPREPQVYTLPPSQEEMTKNQVSLWCLVKGFYPSDIAVEWESNGQPENNYKTTPPVLDSDGSFFLYSRLTVDKSRWQEGNVFSCSVMHEALHNHYTQKSLSLSLG
chain 2: EIVLTQSPATLSLSPGERATLSCRASESVDNYGMSFMNWFQQKPGQPPKLLIHAASNQGSGVPSRFSGSGSGTDFTLTISSLEPEDFAVYFCQQSKEVPYTFGGGTKVEIKGGGSGGGGQVQLVQSGAEVKKPGASVKVSCKASGYSFTSYWMNWVRQAPGQGLEWIGVIHPSDSETWLDQKFKDRVTITVDKSTSTAYMELSSLRSEDTAVYYCAREHYGTSPFAYWGQGTLVTVSSGGCGGGKVAACKEKVAALKEKVAALKEKVAALKE
chain 3: QVQLVESGGGVVQPGRSLRLSCAASGFTFSSYTMHWVRQAPGKGLEWVTFISYDGSNKHYADSVKGRFTVSRDNSKNTLYLQMNSLRAEDTAIYYCARTGWLGPFDYWGQGTLVTVSSASTKGPSVFPLAPCSRSTSESTAALGCLVKDYFPEPVTVSWNSGALTSGVHTFPAVLQSSGLYSLSSVVTVPSSSLGTKTYTCNVDHKPSNTKVDKRVESKYGPPCPPCPAPEFLGGPSVFLFPPKPKDTLYITREPEVTCVVVDVSQEDPEVQFNWYVDGVEVHNAKTKPREEQFNSTYRVVSVLTVLHQDWLNGKEYKCKVSNKGLPSSIEKTISKAKGQPREPQVYTLPPSQEEMTKNQVSLSCAVKGFYPSDIAVEWESNGQPENNYKTTPPVLDSDGSFFLVSRLTVDKSRWQEGNVFSCSVMHEALHNRYTQKSLSLSLG
chain 4: not shown
notes: Four-chain trivalent molecule: two PD-1 sites (PD-1 mAb 6-ISQ, diabody type), one CTLA-4 site (CTLA-4 mAb 3, Fab type), knob/hole IgG4 (YTE)
As to B3, the “IC50 (read off the curve)” value is roughly 0.8 nM in test [2]; roughly 1 nM in test [3]; roughly 1 nM with hPD-1-His [5]; roughly 10 nM in [6]; roughly 3 nM in [7]; roughly 1 nM with hPD-1-His [8]. The Kd in [4] came out at 260 nM.

B4: CTLA-4 mAb 1 (antibody, IgG1, V domains shown)
VH: QVQLVESGGGVVQPGRSLRLSCAASGFTFSSYTMHWVRQAPGKGLEWVTFISYDGNNKYYADSVKGRFTISRDNSKNTLYLQMNSLRAEDTAIYYCARTGWLGPFDYWGQGTLVTVSS
VL: not shown
notes: IgG1, natural antibody structure; also called ipilimumab replica
For B4, in [9], the Kd is 1.3 nM.

B5: DART D (bispecific antibody, human IgG4 S228P)
chain 1: EIVLTQSPATLSLSPGERATLSCRASESVDNYGMSFMNWFQQKPGQPPKLLIHAASNQGSGVPSRFSGSGSGTDFTLTISSLEPEDFAVYFCQQSKEVPYTFGGGTKVEIKGGGSGGGGQVQLVESGGGVVQPGRSLRLSCAASGFTFSSYTMHWVRQAPGKGLEWVTFISYDGSNKHYADSVKGRFTVSRDNSKNTLYLQMNSLRAEDTAIYYCARTGWLGPFDYWGQGTLVTVSSGGCGGGEVAACEKEVAALEKEVAALEKEVAALEKESKYGPPCPPCPAPEFLGGPSVFLFPPKPKDTLYITREPEVTCVVVDVSQEDPEVQFNWYVDGVEVHNAKTKPREEQFNSTYRVVSVLTVLHQDWLNGKEYKCKVSNKGLPSSIEKTISKAKGQPREPQVYTLPPSQEEMTKNQVSLTCLVKGFYPSDIAVEWESNGQPENNYKTTPPVLDSDGSFFLYSRLTVDKSRWQEGNVFSCSVMHEALHNHYTQKSLSLSLG
chain 2: not shown
notes: Four-chain Fc diabody, PD-1 mAb 6-ISQ x CTLA-4 mAb 3, IgG4 (YTE), E/K-coils
As for B5, the “EC50 (read off the curve)” value was roughly 1 nM in test [10], roughly 2 nM in [11], roughly 0.5 nM in the test with hPD-1-His [1] and roughly 2 nM in [12]. For the same molecule, the “IC50 (read off the curve)” value was roughly 0.8 nM in [2]; roughly 1 nM in [3]; roughly 4 nM in [13]; roughly 5 nM in test [14]; roughly 0.8 nM with hPD-1-His [8]. Besides, in test [9], the Kd came out at 4.9 nM.

The values above are taken from patent US20210130470A1 (MacroGenics, published 2021).
